{
  "source": "patent US20060166868A1",
  "about": "“Vegf peptides and their use” (priority 2002, published 2006)",
  "key": {"Neuropilin-1 (NP-1)": {"target": "T1, Neuropilin-1 (NP-1) (Homo sapiens, UniProt O14786)", "T1 construct": "expressed in transfected cells; host or cells: porcine aortic endothelial cells (PAE/NP1)", "T1 sequence (O14786 22-923, species assumed)": "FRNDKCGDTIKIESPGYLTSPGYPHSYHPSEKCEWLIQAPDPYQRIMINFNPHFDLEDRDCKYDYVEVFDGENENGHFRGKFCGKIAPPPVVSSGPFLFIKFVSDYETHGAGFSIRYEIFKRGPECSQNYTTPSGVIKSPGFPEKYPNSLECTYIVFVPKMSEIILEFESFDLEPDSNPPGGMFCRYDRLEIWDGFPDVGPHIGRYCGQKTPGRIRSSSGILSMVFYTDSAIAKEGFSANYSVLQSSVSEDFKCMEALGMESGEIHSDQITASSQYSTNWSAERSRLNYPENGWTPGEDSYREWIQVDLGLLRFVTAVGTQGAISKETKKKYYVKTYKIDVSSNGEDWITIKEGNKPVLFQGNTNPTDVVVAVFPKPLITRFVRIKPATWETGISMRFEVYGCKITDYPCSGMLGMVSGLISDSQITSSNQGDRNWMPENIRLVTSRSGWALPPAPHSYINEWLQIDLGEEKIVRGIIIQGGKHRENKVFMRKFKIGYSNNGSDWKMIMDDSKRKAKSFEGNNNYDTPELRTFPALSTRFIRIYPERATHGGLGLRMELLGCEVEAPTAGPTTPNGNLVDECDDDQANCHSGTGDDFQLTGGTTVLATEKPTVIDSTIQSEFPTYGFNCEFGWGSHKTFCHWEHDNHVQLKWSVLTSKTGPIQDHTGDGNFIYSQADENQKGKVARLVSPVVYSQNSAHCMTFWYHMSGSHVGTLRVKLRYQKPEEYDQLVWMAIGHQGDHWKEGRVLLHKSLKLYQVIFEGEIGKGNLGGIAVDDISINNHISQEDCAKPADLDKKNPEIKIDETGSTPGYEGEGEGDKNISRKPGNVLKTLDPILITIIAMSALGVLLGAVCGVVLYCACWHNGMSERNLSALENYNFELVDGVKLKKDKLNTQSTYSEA", "assay": "125I-VEGF165 binding to PAE/NP1 cells"}, "KDR [1]": {"target": "T2, KDR (Homo sapiens, UniProt P35968)", "T2 construct": "expressed in transfected cells; host or cells: porcine aortic endothelial cells (PAE/KDR)", "T2 sequence (P35968 20-1356, species assumed)": "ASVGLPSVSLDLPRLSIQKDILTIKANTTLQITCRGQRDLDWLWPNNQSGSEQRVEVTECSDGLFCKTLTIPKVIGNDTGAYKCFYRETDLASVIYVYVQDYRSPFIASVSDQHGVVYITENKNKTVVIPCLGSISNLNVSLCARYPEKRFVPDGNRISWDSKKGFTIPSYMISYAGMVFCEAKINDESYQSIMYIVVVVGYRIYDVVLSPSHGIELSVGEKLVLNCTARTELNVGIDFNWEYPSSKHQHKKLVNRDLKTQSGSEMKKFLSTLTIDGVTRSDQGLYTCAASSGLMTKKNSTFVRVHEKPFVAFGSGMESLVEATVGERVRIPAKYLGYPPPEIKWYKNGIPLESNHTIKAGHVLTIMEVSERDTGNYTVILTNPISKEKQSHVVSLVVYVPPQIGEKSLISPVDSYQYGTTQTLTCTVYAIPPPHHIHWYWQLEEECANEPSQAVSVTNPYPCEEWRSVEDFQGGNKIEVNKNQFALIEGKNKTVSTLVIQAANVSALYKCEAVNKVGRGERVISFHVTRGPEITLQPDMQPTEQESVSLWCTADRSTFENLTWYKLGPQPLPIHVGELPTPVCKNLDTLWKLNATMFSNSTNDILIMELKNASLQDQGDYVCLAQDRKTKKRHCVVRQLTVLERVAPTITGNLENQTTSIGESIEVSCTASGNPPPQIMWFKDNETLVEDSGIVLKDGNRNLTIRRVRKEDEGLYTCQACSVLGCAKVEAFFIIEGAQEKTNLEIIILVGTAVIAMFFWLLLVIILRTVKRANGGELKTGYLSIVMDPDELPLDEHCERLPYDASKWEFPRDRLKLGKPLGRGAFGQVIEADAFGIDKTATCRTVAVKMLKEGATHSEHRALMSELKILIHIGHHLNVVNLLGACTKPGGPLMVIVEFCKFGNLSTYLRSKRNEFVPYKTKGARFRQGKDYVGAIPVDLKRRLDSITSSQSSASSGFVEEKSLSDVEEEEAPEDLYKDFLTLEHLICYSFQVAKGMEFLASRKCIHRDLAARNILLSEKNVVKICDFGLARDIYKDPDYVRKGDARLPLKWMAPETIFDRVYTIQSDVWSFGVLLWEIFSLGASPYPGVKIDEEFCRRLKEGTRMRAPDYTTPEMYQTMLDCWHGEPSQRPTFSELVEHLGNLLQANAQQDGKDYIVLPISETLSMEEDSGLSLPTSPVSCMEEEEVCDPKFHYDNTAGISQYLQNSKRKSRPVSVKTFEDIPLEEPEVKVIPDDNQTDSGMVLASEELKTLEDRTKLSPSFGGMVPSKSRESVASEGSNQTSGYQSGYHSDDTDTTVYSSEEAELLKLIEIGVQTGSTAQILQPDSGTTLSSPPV", "assay": "125I-VEGF165 binding to PAE/KDR cells", "conditions": "FIG. 2; cells expressing only KDR"}, "NP-1": {"target": "T3, NP-1 (Homo sapiens, UniProt O14786)", "T3 construct": "the breast carcinoma cell line MDA-MB-231, that naturally expresses only NP-1 receptors for VEGF; endogenous in cells; host or cells: MDA-MB-231", "T3 sequence (O14786 22-923)": "as the sequence (O14786 22-923, species assumed) above", "assay": "radiolabelled VEGF binding to MDA-MB-231 cells", "conditions": "FIG. 4; cells naturally express only NP-1 receptors for VEGF"}, "Flt-1": {"target": "T4, Flt-1 (Homo sapiens, UniProt P17948)", "T4 construct": "expressed in transfected cells; host or cells: porcine aortic endothelial cells (PAE/Flt-1)", "T4 sequence (P17948 27-1338, species assumed)": "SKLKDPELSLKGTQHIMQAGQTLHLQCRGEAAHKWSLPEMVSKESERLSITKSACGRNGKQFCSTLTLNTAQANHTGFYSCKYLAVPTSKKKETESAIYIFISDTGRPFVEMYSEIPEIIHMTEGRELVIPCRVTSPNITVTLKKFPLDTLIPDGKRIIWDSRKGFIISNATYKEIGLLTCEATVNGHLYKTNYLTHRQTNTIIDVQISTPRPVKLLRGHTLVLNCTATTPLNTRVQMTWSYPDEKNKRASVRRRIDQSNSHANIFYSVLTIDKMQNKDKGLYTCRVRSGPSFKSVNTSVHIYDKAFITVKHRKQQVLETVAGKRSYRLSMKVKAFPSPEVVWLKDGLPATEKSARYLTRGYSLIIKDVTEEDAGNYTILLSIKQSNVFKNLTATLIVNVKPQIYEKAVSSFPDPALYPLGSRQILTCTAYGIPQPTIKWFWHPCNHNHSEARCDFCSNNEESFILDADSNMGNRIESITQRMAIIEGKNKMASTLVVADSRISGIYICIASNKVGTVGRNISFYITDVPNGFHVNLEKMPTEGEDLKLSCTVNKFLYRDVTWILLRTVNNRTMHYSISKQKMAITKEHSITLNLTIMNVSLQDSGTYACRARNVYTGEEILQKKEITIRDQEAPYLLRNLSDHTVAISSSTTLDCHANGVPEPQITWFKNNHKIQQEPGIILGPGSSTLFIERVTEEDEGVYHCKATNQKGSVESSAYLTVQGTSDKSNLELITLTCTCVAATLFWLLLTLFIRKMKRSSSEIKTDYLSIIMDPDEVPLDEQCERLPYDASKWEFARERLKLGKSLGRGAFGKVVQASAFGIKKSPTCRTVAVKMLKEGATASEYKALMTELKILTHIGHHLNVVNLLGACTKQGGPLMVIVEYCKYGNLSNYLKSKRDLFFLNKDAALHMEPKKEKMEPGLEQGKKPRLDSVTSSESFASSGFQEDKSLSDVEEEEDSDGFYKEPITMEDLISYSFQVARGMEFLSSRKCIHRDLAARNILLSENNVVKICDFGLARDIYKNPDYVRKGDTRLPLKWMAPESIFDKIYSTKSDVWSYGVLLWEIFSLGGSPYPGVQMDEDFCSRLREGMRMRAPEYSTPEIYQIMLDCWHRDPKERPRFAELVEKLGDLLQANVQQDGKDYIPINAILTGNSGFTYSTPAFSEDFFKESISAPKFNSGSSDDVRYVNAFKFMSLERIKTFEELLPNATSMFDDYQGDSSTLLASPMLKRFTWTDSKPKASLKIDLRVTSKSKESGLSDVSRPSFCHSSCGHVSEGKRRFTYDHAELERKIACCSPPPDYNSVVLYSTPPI", "assay": "125I-VEGF165 binding to PAE/Flt-1 cells", "conditions": "FIG. 2; cells expressing only Flt-1"}, "[2]": {"system": "human umbilical vein endothelial cells (HUVEC) which express NP-1, KDR and Flt-1", "assay": "radiolabelled VEGF binding to HUVEC", "conditions": "FIG. 2"}, "KDR [3]": {"system": "KDR", "assay": "KDR Phosphorylation Assay", "format": "cell-based", "conditions": "FIG. 3; peptide at 10, 30 and 100 mM for 15 minutes, then 25 ng/ml VEGF for 10 minutes; immunoblot", "experimental": "Cells were pretreated with peptide at 10, 30 and 100 mM for 15 minutes followed by treatment with 25 ng/ml VEGF for 10 minutes, and cells were immediately extracted by lysis buffer (64 mM Tris-HCl, pH 6.8, 0.2 mM Na3VO4, 2% SDS, 10% glycerol, 0.1 mM AEBSF, […] leupeptin). KDR phosphorylation was determined by immunoblotting cell extracts with antibodies which recognise either KDR phosphorylated at Tyrosines 1054 and 1059 (purchased from Oncogene Research Products Inc.) or total KDR (purchased from Santa Cruz Inc.). Immunoreactive bands were visualised by chemiluminescence using horseradish peroxidase-conjugated anti-rabbit IgG and ECL reagent."}, "HUVECs": {"system": "HUVECs", "conditions": "Soker et al, J. Biol. Chem. 272 (1997); cited from earlier work"}},
  "note": "No end group written: not given here.",
  "data": [
    {"substance": "EG3287: bicyclic form of SEQ ID NO. 2, SCKNTDSRCKARQLELNERTCRCDKPRR, amino acids 138 to 165 within VEGF (not fully specified (N-terminus, C-terminus, bridges); also: bicyclic, two disulfides, pairing not given here; listed as Homo sapiens)", "values": [
      {"measurement": "effect on 125I-VEGF165 binding to PAE/NP1 cells", "setting": "Neuropilin-1 (NP-1); FIG. 1, peptide 100 μM, porcine aortic endothelial cells expressing only NP-1", "result": "inhibition"},
      {"measurement": "inhibition of 125I-VEGF165 binding to PAE/NP-1 cells", "setting": "Neuropilin-1 (NP-1); FIG. 2", "result": "specific, selective inhibition"},
      {"measurement": "effect on 125I-VEGF165 binding to PAE/KDR cells", "setting": "KDR [1]", "result": "no effect"},
      {"measurement": "binding of radiolabelled VEGF to breast carcinoma cell line MDA-MB-231", "setting": "NP-1", "result": "inhibited"},
      {"measurement": "effect on 125I-VEGF165 binding to PAE/Flt-1 cells", "setting": "Flt-1", "result": "no effect"},
      {"measurement": "radiolabelled VEGF binding to HUVEC", "setting": "[2]", "result": "inhibited"},
      {"measurement": "VEGF-induced KDR phosphorylation", "setting": "KDR [3]", "result": "inhibited"}
    ]},
    {"substance": "SEQ ID NO. 1: CSCKNTDSRCKARQLELNERTCRC, shortest active peptide of Soker et al; amino acids 22-44 of exon 7 and amino acid 1 of exon 8 (listed as Homo sapiens)", "values": [
      {"measurement": "inhibition of VEGF binding to HUVECs", "setting": "HUVECs", "result": "active"}
    ]}
  ]
}
